In the data set the test system is CN[C@@H]1[C@H](O)[C@H](NC)[C@H]2O[C@@]3(O)C(=O)C[C@@H](C)O[C@H]3O[C@@H]2[C@H]1O. The data set can be described thus: purified protein. The settings on record: 5 mM ATP, 10 mM MgCl2, 50 mM HEPES pH 7.5, 37°C.

One may read the Km as the substrate concentration at which the rate is half of its maximum. In general, kcat refers to the maximal rate divided by the concentration of active sites. The term kcat/Km denotes the second-order rate constant that governs catalysis at low substrate concentration. For the substance ANT(9)-Ib (Enterococcus faecalis), the Km was 33.56 ± 8.1 µM, the kcat is 2.6 ± 0.2 s⁻¹ and the kcat/Km was determined as 83000 ± 21000 M⁻¹ s⁻¹.

The record behind these values is paper PMC10269693.
